T1: FcγRIIa H (human, UniProt P12318 34-217)
T1 construct: extracellular domain; Soluble His-tagged extracellular domain expressed in FreeStyle293 cells; also called FcγRIIa type H; FcgRIIa H; not shown: His tag attached to the C terminus
T1 sequence (looked up): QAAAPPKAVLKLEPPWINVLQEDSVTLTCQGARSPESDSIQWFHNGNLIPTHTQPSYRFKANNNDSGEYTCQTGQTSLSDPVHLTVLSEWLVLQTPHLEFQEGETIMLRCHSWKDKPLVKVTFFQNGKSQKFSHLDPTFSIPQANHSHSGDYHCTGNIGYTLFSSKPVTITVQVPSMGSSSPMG

T2: FcγRIIb (human, UniProt P31994 43-217)
T2 construct: extracellular domain; Soluble His-tagged extracellular domain expressed in FreeStyle293 cells; also called FcgRIIb; 2b; not shown: His tag attached to the C terminus
T2 sequence (looked up): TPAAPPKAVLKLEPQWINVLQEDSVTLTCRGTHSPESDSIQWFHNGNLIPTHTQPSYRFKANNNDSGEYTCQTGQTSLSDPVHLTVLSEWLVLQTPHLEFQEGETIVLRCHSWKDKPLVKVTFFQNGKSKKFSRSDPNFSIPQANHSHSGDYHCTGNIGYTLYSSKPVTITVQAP

T3: FcγRIIb extracellular domain with C-terminal His tag (human, UniProt P31994 43-217)
T3 construct: extracellular domain; also called FcgRIIb; 2b; not shown: His tag at the C terminus
T3 sequence (looked up): T2 sequence (looked up)

B1: GpH7-A5/GpH7-B3 variant P331_10E/GpL16-k0 (antibody, human IgG1, kappa)
heavy 1: not shown
heavy 2: not shown
light: DIVMTQSPLSLPVTPGEPASISCQASESLVHSNRNTYLHWYLQKPGQSPQLLIYKVSNRFSGVPDRFSGSGSGTDFTLKISRVEAEDVGVYYCSQNTHVPPTFGQGTKVEIERTVAAPSVFIFPPSDEQLKSGTASVVCLLNNFYPREAKVQWKVDNALQSGNSQESVTEQDSKDSTYSLSSTLTLSKADYEKHKVYACEVTHQGLSSPVTKSFNRGEC
notes: Heterodimerized anti-glypican-3 IgG1; mutation in the GpH7-B3 H chain only; also called He Ab
B2: GpH7-A5/GpH7-B3 variant N325_20W/GpL16-k0 (antibody, human IgG1, kappa)
heavy 1: not shown
heavy 2: not shown
light: B1 light
notes: as for B1
B3: GpH7-A5/GpH7-B3 variant S324_05P/GpL16-k0 (antibody, human IgG1, kappa)
heavy 1: not shown
heavy 2: not shown
light: B1 light
notes: as for B1
B4: GpH7-A5/GpH7-B3 variant P331_03V/GpL16-k0 (antibody, human IgG1, kappa)
heavy 1: not shown
heavy 2: not shown
light: B1 light
notes: as for B1
B5: GpH7-A5/GpH7-B3 variant P331_07I/GpL16-k0 (antibody, human IgG1, kappa)
heavy 1: not shown
heavy 2: not shown
light: B1 light
notes: as for B1
B6: GpH7-A5/GpH7-B3 variant N325_13S/GpL16-k0 (antibody, human IgG1, kappa)
heavy 1: not shown
heavy 2: not shown
light: B1 light
notes: as for B1
B7: GpH7-A5/GpH7-B3 variant N325_14T/GpL16-k0 (antibody, human IgG1, kappa)
heavy 1: not shown
heavy 2: not shown
light: B1 light
notes: as for B1
B8: GpH7-A5/GpH7-B3 variant P331_20W/GpL16-k0 (antibody, human IgG1, kappa)
heavy 1: not shown
heavy 2: not shown
light: B1 light
notes: as for B1
B9: GpH7-A5/GpH7-B3 variant P331_15Y/GpL16-k0 (antibody, human IgG1, kappa)
heavy 1: not shown
heavy 2: not shown
light: B1 light
notes: as for B1
B10: GpH7-A5/GpH7-B3 variant N325_15Y/GpL16-k0 (antibody, human IgG1, kappa)
heavy 1: not shown
heavy 2: not shown
light: B1 light
notes: as for B1
B11: GpH7-A5/GpH7-B3 variant P331_16H/GpL16-k0 (antibody, human IgG1, kappa)
heavy 1: not shown
heavy 2: not shown
light: B1 light
notes: as for B1
B12: GpH7-A5/GpH7-B3 variant N325_16H/GpL16-k0 (antibody, human IgG1, kappa)
heavy 1: not shown
heavy 2: not shown
light: B1 light
notes: as for B1
B13: GpH7-A5/GpH7-B3 variant P331_04F/GpL16-k0 (antibody, human IgG1, kappa)
heavy 1: not shown
heavy 2: not shown
light: B1 light
notes: as for B1
B14: GpH7-A5/GpH7-B3 variant K334_09D/GpL16-k0 (antibody, human IgG1, kappa)
heavy 1: not shown
heavy 2: not shown
light: B1 light
notes: He Ab: the mutation stands only in the GpH7-B3-derived H chain; also called He Ab K334D
B15: GpH7-A5/GpH7-B3 variant S337_04F/GpL16-k0 (antibody, human IgG1, kappa)
heavy 1: not shown
heavy 2: not shown
light: B1 light
notes: He Ab: the mutation stands only in the GpH7-B3-derived H chain; also called He Ab S337F
B16: GpH7-A5/GpH7-B3 variant I336_10E/GpL16-k0 (antibody, human IgG1, kappa)
heavy 1: not shown
heavy 2: not shown
light: B1 light
notes: He Ab: the mutation stands only in the GpH7-B3-derived H chain; also called He Ab I336E
B17: GpH7-A5/GpH7-B3 variant T335_05P/GpL16-k0 (antibody, human IgG1, kappa)
heavy 1: not shown
heavy 2: not shown
light: B1 light
notes: He Ab: the mutation stands only in the GpH7-B3-derived H chain; also called He Ab T335P

Target: T1, FcγRIIa H
Assay: SPR (Biacore); He/Con_2aH divided by He/Con_2b (FcγRIIb) of the same antibody
Protocol: The heterodimerized antibodies He Abs in which one of the H chains was introduced with an alteration were assayed for their binding activities to each activating FcγR and inhibitory FcγR according to the method described in Example 4. […] The activating FcγRs in FIGS. 26, 27, 28, and 29 are FcγRIa, FcγRIIa (R), FcγRIIa (H), and FcγRIIIa, respectively.
(§1) Analysis of interaction between objective antibody and the FcγR was carried out using Biacore T100 (GE Healthcare). HBS-EP+ (GE Healthcare) was used as the running buffer, and the measurement temperature was set to 25° C. Chips produced by immobilizing the antigen peptide by the amine coupling method to a Series S Sencor Chip CM5 (GE Healthcare), or alternatively, chips produced by allowing preliminarily biotinylated antigen peptides to interact with and immobilize onto a Series S Sensor Chip SA (certified) (GE Healthcare) were used. Antibodies of interest were captured onto an antigen peptide-immobilized chip, and allowed to interact to each FcγR diluted with running buffer. To regenerate and repeatedly use the chip, the antibodies captured on the chip were washed off by reacting 10 mM glycine-HCl, pH 1.5.

Row | He_2aH/2b | Binder
1 | 0.75 ratio | B1
2 | 0.28 ratio | B2
3 | 0.59 ratio | B3
4 | 0.7 ratio | B4
5 | 0.68 ratio | B5
6 | 0.45 ratio | B6
7 | 0.68 ratio | B7
8 | 0.75 ratio | B8
9 | 0.75 ratio | B9
10 | 0.41 ratio | B10
11 | 0.73 ratio | B11
12 | 0.68 ratio | B12
13 | 0.77 ratio | B13

Target: T1, FcγRIIa H
Assay: SPR (Biacore), captured antibody, FcγR analyte; relative to GpH7-A5/GpH7-B3/GpL16-k0 = 100
Protocol: as §1
(§2) The FcγR-binding activity of each antibody was assessed primarily using as an indicator the FcγR-binding activity and dissociation constant for FcγR.

Row | He/Con_2aH | Binder
14 | 87.1 relative (control = 100) | B1
15 | 47.2 relative (control = 100) | B2
16 | 55.5 relative (control = 100) | B3
17 | 82.5 relative (control = 100) | B4
18 | 77.4 relative (control = 100) | B5
19 | 79.7 relative (control = 100) | B6
20 | 62.7 relative (control = 100) | B7
21 | 82.8 relative (control = 100) | B8
22 | 86 relative (control = 100) | B9
23 | 41.2 relative (control = 100) | B10
24 | 84.5 relative (control = 100) | B11
25 | 48 relative (control = 100) | B12
26 | 84.7 relative (control = 100) | B13

Target: T2, FcγRIIb
Assay: as above
Protocol: as §1, §2

Row | He/Con_2b | Binder
27 | 116 relative (control = 100) | B1
28 | 169 relative (control = 100) | B2
29 | 94.7 relative (control = 100) | B3
30 | 119 relative (control = 100) | B4
31 | 114 relative (control = 100) | B5
32 | 177 relative (control = 100) | B6
33 | 91.6 relative (control = 100) | B7
34 | 111 relative (control = 100) | B8
35 | 114 relative (control = 100) | B9
36 | 99.5 relative (control = 100) | B10
37 | 116 relative (control = 100) | B11
38 | 70.1 relative (control = 100) | B12
39 | 110 relative (control = 100) | B13

Target: T4, FcγRIIIa extracellular domain with C-terminal His tag (human, UniProt P08637 17-208)
T4 construct: extracellular domain; also called FcgRIIIa; 3a; not shown: His tag at the C terminus
T4 sequence (P08637 17-208): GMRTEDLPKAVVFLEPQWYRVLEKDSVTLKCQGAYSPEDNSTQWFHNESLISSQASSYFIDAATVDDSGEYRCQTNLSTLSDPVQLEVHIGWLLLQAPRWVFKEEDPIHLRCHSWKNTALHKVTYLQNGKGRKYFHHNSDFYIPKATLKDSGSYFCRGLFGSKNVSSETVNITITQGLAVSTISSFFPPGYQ
Assay: SPR (Biacore), antibody captured via antigen peptide, FcγR as analyte; binding relative to GpH7-A5/GpH7-B3/GpL16-k0 = 100

Row | He/Con_3a | Binder
40 | 160 relative (control = 100) | B14
41 | 101 relative (control = 100) | B15
42 | 119 relative (control = 100) | B16
43 | 105 relative (control = 100) | B17

Target: T3, FcγRIIb extracellular domain with …
Assay: as above

Row | He/Con_2b | Binder
44 | 94.8 relative (control = 100) | B14
45 | 97.8 relative (control = 100) | B15
46 | 89.8 relative (control = 100) | B16
47 | 99.9 relative (control = 100) | B17
